These results are taken from publication PMC11969024 (2025).

B1: peptide HD2 (from tick evasin EVA4) / CCL19 (biotinylated, synthetic) (parent complex)
chain 1: EEDDYTAYAPLTCYFT
chain 2: GTNDAEDCCLSVTQKPIPGYIVRNFHYLLIKDGCRVPAVVFTTLRGRQLCAPPDQPWVERIIQRLQRTSAKMKRRSS

This test covers variants of B1.
As for chain 1 EEDDYTAYAPLTCYFE, the enrichment is -1.61 log2 (difference from the parental peptide).
The figure for chain 1 EEDDYTAYAPLTCYFL is 0.688 log2 (difference from the parental peptide); for chain 1 EEDDYTAYAPLTCYFK it is -6.25 log2 (difference from the parental peptide).
The figure for chain 1 EEDDYTAYAPLTCYFV is 0.157 log2 (difference from the parental peptide); for chain 1 EEDDYTAYAPLTCYFH it is -3.46 log2 (difference from the parental peptide); for chain 1 EEDDYTAYAPLTCYFN it is -5.68 log2 (difference from the parental peptide).
Regarding chain 1 EEDDYTAYAPLTCYFY, the enrichment was -0.692 log2 (difference from the parental peptide).
The figure for chain 1 EEDDYTAYAPLTCYFW is 0.831 log2 (difference from the parental peptide); for chain 1 ECDDYTAYAPLTCYFT it is -4.17 log2 (difference from the parental peptide); for chain 1 EADDYTAYAPLTCYFT it is -0.338 log2 (difference from the parental peptide).
The figure for chain 1 EEEDYTAYAPLTCYFT is -0.508 log2 (difference from the parental peptide); for chain 1 EENDYTAYAPLTCYFT it is -6.84 log2 (difference from the parental peptide); for chain 1 EESDYTAYAPLTCYFT it is -8.53 log2 (difference from the parental peptide).
The figure for chain 1 EEVDYTAYAPLTCYFT is -8.31 log2 (difference from the parental peptide); for chain 1 EEDDYTAYAPLLCYFT it is 2.69 log2 (difference from the parental peptide).
As for chain 1 EEDDYTAYAPLPCYFT, the enrichment is -4.32 log2 (difference from the parental peptide).
chain 1 EEDDYTAYAPLICYFT: the enrichment is 5.78 log2 (difference from the parental peptide).
The figure for chain 1 EEDDYTAYAPLACYFT is -4.86 log2 (difference from the parental peptide); for chain 1 EEDDYTAYAPLYCYFT it is 3.73 log2 (difference from the parental peptide).
The value for chain 1 EEDDYTAYAPLECYFT was -6.93 log2 (difference from the parental peptide); that for chain 1 EEDDYTAYAPLFCYFT was 3.41 log2 (difference from the parental peptide); that for chain 1 EEDDYTAYAPLCCYFT was -7.61 log2 (difference from the parental peptide).
The value for chain 1 EEDDYTAYAPLNCYFT was -6.73 log2 (difference from the parental peptide).
Consider chain 1 EEDDYTAYAPLTCYDT, for which the enrichment is -7.57 log2 (difference from the parental peptide).
The value for chain 1 EEDDYTAYAPLTCYAT was -5.34 log2 (difference from the parental peptide); that for chain 1 EEDDYTAYAPLTCYVT was -3.63 log2 (difference from the parental peptide).
The figure for chain 1 EEDDYTAYAPLTCYWT is -0.785 log2 (difference from the parental peptide); for chain 1 EEDDYTAYAPLTCYQT it is -4.06 log2 (difference from the parental peptide); for chain 1 EEDDYTAYAPLTCYST it is -6.94 log2 (difference from the parental peptide).
The figure for chain 1 EEDDYTAYAPLTCYPT is -6.33 log2 (difference from the parental peptide).
Turning to chain 1 EEDDYTAYAPLTCYCT, the enrichment is -6.81 log2 (difference from the parental peptide).
Consider chain 1 EEDDYTAYAPLTCYYT, for which the enrichment was -1.04 log2 (difference from the parental peptide).
The figure for chain 1 EEDDYTAYAPLTCYLT is -2.93 log2 (difference from the parental peptide); for chain 1 EEDDYTAYAPLTCYMT it is -6.46 log2 (difference from the parental peptide).
Consider chain 1 EEDDYTNYAPLTCYFT, for which the enrichment is -1.33 log2 (difference from the parental peptide).
With chain 1 EEDDYTRYAPLTCYFT, the enrichment is -0.336 log2 (difference from the parental peptide).
The figure for chain 1 EEDDYTLYAPLTCYFT is 1.76 log2 (difference from the parental peptide); for chain 1 EEDDYTIYAPLTCYFT it is 1.38 log2 (difference from the parental peptide); for chain 1 EEDDYTYYAPLTCYFT it is 4.06 log2 (difference from the parental peptide).
The figure for chain 1 EEDDYTKYAPLTCYFT is -3.29 log2 (difference from the parental peptide); for chain 1 EEDDYTSYAPLTCYFT it is -2.1 log2 (difference from the parental peptide); for chain 1 EEDDYTHYAPLTCYFT it is -0.764 log2 (difference from the parental peptide).
The value for chain 1 EEDDYTQYAPLTCYFT was 0.522 log2 (difference from the parental peptide).
Take chain 1 EEDDYTVYAPLTCYFT: the enrichment was 0.465 log2 (difference from the parental peptide).
The value for chain 1 EEDDYTAYAPLTSYFT was -6.7 log2 (difference from the parental peptide); that for chain 1 EEDDYTAYAPLTDYFT was -7.13 log2 (difference from the parental peptide).
The value for chain 1 EEDDYTAYAPLTPYFT was -6.25 log2 (difference from the parental peptide).
The value for chain 1 EEDDYTAYAPLTLYFT was -7.7 log2 (difference from the parental peptide); that for chain 1 EEDDMTAYAPLTCYFT was -5.03 log2 (difference from the parental peptide); that for chain 1 EEDDTTAYAPLTCYFT was -5.05 log2 (difference from the parental peptide).
Turning to chain 1 EEDDFTAYAPLTCYFT, the enrichment was -2.5 log2 (difference from the parental peptide).
The value for chain 1 EEDDSTAYAPLTCYFT was -6.07 log2 (difference from the parental peptide); that for chain 1 EEDDLTAYAPLTCYFT was -3.97 log2 (difference from the parental peptide); that for chain 1 EEDDHTAYAPLTCYFT was -6.3 log2 (difference from the parental peptide).
chain 1 EEDDDTAYAPLTCYFT: the enrichment was -5.02 log2 (difference from the parental peptide).
The value for chain 1 EEDDITAYAPLTCYFT was -6.6 log2 (difference from the parental peptide); that for chain 1 EEDDCTAYAPLTCYFT was -4.33 log2 (difference from the parental peptide).
The value for chain 1 EEDDWTAYAPLTCYFT was 3.19 log2 (difference from the parental peptide); that for chain 1 EEDDNTAYAPLTCYFT was -6.68 log2 (difference from the parental peptide).
The value for chain 1 EEDDYNAYAPLTCYFT was -0.836 log2 (difference from the parental peptide).
In the case of chain 1 EEDDYEAYAPLTCYFT, the enrichment is 1.9 log2 (difference from the parental peptide).
The figure for chain 1 EEDDYAAYAPLTCYFT is -0.907 log2 (difference from the parental peptide).
The value for chain 1 EEDDYKAYAPLTCYFT was -1.49 log2 (difference from the parental peptide); that for chain 1 EEDDYDAYAPLTCYFT was 2.57 log2 (difference from the parental peptide).
chain 1 EEDDYLAYAPLTCYFT: the enrichment was 1.3 log2 (difference from the parental peptide).
The figure for chain 1 EEDDYHAYAPLTCYFT is -2.26 log2 (difference from the parental peptide).
The figure for chain 1 EEDDYPAYAPLTCYFT is -4.5 log2 (difference from the parental peptide).
The value for chain 1 EEDDYIAYAPLTCYFT was -2.29 log2 (difference from the parental peptide); that for chain 1 EEDDYGAYAPLTCYFT was 1.65 log2 (difference from the parental peptide).
Regarding chain 1 EEDDYTAYAPLTCAFT, the enrichment is -9.01 log2 (difference from the parental peptide).
The figure for chain 1 EEDDYTAYAPLTCGFT is -9.47 log2 (difference from the parental peptide); for chain 1 EEDDYTAYAPLTCFFT it is -2.54 log2 (difference from the parental peptide); for chain 1 EEDDYTAYAPLTCMFT it is -7.94 log2 (difference from the parental peptide).
The value for chain 1 EEDDYTAYAPLTCPFT was -7.82 log2 (difference from the parental peptide); that for chain 1 EEDDYTAYAPLTCVFT was -7.09 log2 (difference from the parental peptide); that for chain 1 EEDDYTAYATLTCYFT was -5.84 log2 (difference from the parental peptide).
Take chain 1 EEDDYTAYAVLTCYFT: the enrichment is -9.35 log2 (difference from the parental peptide).
On to chain 1 EEDDYTAYAWLTCYFT, for which the enrichment is -2.06 log2 (difference from the parental peptide).
With chain 1 EEDDYTAYALLTCYFT, the enrichment was -6.31 log2 (difference from the parental peptide).
The figure for chain 1 EEDDYTAYAFLTCYFT is -4.06 log2 (difference from the parental peptide).
The value for chain 1 EEDDYTAYAMLTCYFT was -7.47 log2 (difference from the parental peptide).
The value for chain 1 EEDDYTAYAYLTCYFT was -6.54 log2 (difference from the parental peptide); that for chain 1 EEDDYTAYMPLTCYFT was -0.965 log2 (difference from the parental peptide).
In the case of chain 1 EEDDYTAYVPLTCYFT, the enrichment was -6.04 log2 (difference from the parental peptide).
The figure for chain 1 EEDDYTAYLPLTCYFT is -1.81 log2 (difference from the parental peptide).
The figure for chain 1 EEDDYTAYTPLTCYFT is -6.55 log2 (difference from the parental peptide).
The figure for chain 1 EEDDYTAYFPLTCYFT is -2.77 log2 (difference from the parental peptide); for chain 1 EEDDYTAYEPLTCYFT it is -4.22 log2 (difference from the parental peptide); for chain 1 EEDQYTAYAPLTCYFT it is -5.46 log2 (difference from the parental peptide).
Take chain 1 EEDYYTAYAPLTCYFT: the enrichment was 0.0224 log2 (difference from the parental peptide).
The value for chain 1 EEDFYTAYAPLTCYFT was -1.53 log2 (difference from the parental peptide); that for chain 1 EEDVYTAYAPLTCYFT was -4.18 log2 (difference from the parental peptide); that for chain 1 EEDDYTAYAPSTCYFT was -5.08 log2 (difference from the parental peptide).
The figure for chain 1 EEDDYTAYAPTTCYFT is -3.41 log2 (difference from the parental peptide).
The value for chain 1 EEDDYTAYAPMTCYFT was -1.53 log2 (difference from the parental peptide).
For the variant chain 1 EEDDYTAYAPHTCYFT, the enrichment is -5.81 log2 (difference from the parental peptide).
In the case of chain 1 EEDDYTAYAPCTCYFT, the enrichment is -4.39 log2 (difference from the parental peptide).
Take chain 1 EEDDYTAYAPQTCYFT: the enrichment was -1.91 log2 (difference from the parental peptide).
The figure for chain 1 EEDDYTAYAPPTCYFT is -5.49 log2 (difference from the parental peptide); for chain 1 EEDDYTAYAPVTCYFT it is -0.0786 log2 (difference from the parental peptide).
The value for chain 1 TEDDYTAYAPLTCYFT was -5.43 log2 (difference from the parental peptide); that for chain 1 IEDDYTAYAPLTCYFT was -1.84 log2 (difference from the parental peptide).
The figure for chain 1 GEDDYTAYAPLTCYFT is -6.21 log2 (difference from the parental peptide).
For chain 1 NEDDYTAYAPLTCYFT, the enrichment is -2.91 log2 (difference from the parental peptide).
The figure for chain 1 FEDDYTAYAPLTCYFT is -0.113 log2 (difference from the parental peptide); for chain 1 HEDDYTAYAPLTCYFT it is -5.95 log2 (difference from the parental peptide); for chain 1 VEDDYTAYAPLTCYFT it is -1.37 log2 (difference from the parental peptide).
The figure for chain 1 EEDDYTALAPLTCYFT is -8.33 log2 (difference from the parental peptide); for chain 1 EEDDYTAMAPLTCYFT it is -4.14 log2 (difference from the parental peptide).
The value for chain 1 EEDDYTAHAPLTCYFT was -6.54 log2 (difference from the parental peptide).
As for chain 1 EEDDYTASAPLTCYFT, the enrichment is -6.72 log2 (difference from the parental peptide).
The value for chain 1 EEDDYTAVAPLTCYFT was -4.57 log2 (difference from the parental peptide).
